Measurements taken from publication PMC5749889.

Target: light-harvesting complexes of G. phototrophica (light-harvesting antenna subunits, B868 inner ring and B816 outer ring) (G. phototrophica (endogenous in strain AP64))
Test: negative-stain TEM with single particle analysis; freshly purified complexes on carbon-coated copper grids, 1.5% uranyl acetate, 200 kV, 2D class averages in RELION

Substance: light-harvesting complexes of G. phototrophica (light-harvesting antenna subunits, B868 inner ring and B816 outer ring)
- stoichiometry N: 15
